Test results taken from the supplement of paper PMC9170038.

Test system: K4 kissing-loop RNA reporter
Experiment: apparent KD of K4 kissing-loop reporter; higher = weaker reporter binding
Conditions: Eterna round: R107; input ligand: FMN 200 uM
Experimental: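 RNA-MaP round R107: designed RNA switches with theophylline, tryptophan, arginine or FMN aptamers are transcribed on-chip within common flanks. They are titrated with a labelled K4 kissing-loop RNA reporter in RNA-MaP buffer (100 mM Tris pH 7.5, 80 mM KCl, 4 mM MgCl2), without ligand or with the indicated ligand. Median apparent KD per design.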
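Also: bound reporter read as fluorescence of individual clusters on recovered sequencing chips by microscopy, with normalized cluster intensities fitted with a binding model.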

Row | Sequence | apparent KD of K4 kissing-loop reporter
1 | GCCGUAGAUGGAAGGAGCGUGCGUGAAGUGAUGUUUCACGAAGAGUUUUCCACCUUAUAUGCACAGGUAGGUCGCCAUCUACGGC | 114 nM
2 | UGAUACCAGACGGCCGCCACUCCCGUAAGUCAAAGACUUACGAAGAAGGUUUUUUAGUGAUGUUGGAGGACCGGGUCUGGUAUCU [FiskerMod 19 - Jieux - Exclusion - Tryptophan B] | 258 nM
3 | GUAGGCUACCGAGGAUAUAGUCCAACGGAGUGAUGUUCCGUCUUUCUUCAUCAUUAACGUUGUGAUCUAGAAGGCGGUAGCCUAC | 120 nM
4 | UGUCAUUGGUCGGCCGCCACUCCAUAAUGAGUGAUGUUCUAAAAGACGGAUCGAAAGAUCUGUCGGAGGACCGGGACCGAUGACU [FiskerMod 5 - Jieux - Same State - Tryptophan B] | 566 nM
5 | UGAUACCAGACUGAUACCAGCCAGUGAUGUUGGCUAAGCCGAAGAGGUGUCAUAGACACCGGCCCUUGGCAGCAGUCUGGUAUCU [#07 K4 Theophylline B Exclusion] | 120 nM
6 | AUUAAUUUCAGAGGAUAUCGUGAUUUUGUUUAAUUUAUUCAUUUGUGCAGUGAUGUUGCUAAUAUUCGAGAAGGCUGAUUUAUAA [whbob_Ex_FMNB__2th225] | 161 nM
7 | UGAUAGGACAGAAGGAGCGGUAGUGAUGUUACCAAAAGAAUAAGGUGUCAAAAGACACCCUACCAGGUAGGUCGCUGUCCUAUCU | 170 nM
8 | GGAUAGGACAGAGGAUAUCUCUAAAGAGGCAAGAAAACUUGUCUCAGAGAUGACUCAGUGAUGUUGAGAGAAGGCUGUCCUAUCG [FmnBX 7 - #SwitchBubble #StaticStem] | 425 nM
9 | ACAGGAUCGAAAGAUCCUGAGCAGUCUAACCGAGGACCGGUACGGCCGCCACUCGGAGUGAUGUUCCGAGGACUGCAAAAUAAAA [#SwitchBubble 2 #CoaxialStacking] | 330 nM
10 | CAUAGGAAACUAUGUAUCUCUCUUACUGAAGGAGCGCGUGAAAACGCAGGUAGGUCGCAGAAUUUAAUAGAGAGUGAUGUUCUCU [Ex Arginine A K4 7] | 239 nM
11 | GUAUCGCUAGGAGGAUAUUUCGUUUUUCAUAGCAAUGGCUAUGCGGAGUGAUGUUCCGAUUUACCGAAAGAAGGCCUAGUGAUAC [FMN B 25] | 95.2 nM
12 | AAGGUAAGUGCAUACAAAGUGAUGUUUUGUCGAGGACCGGUACGGCCGCCACUCGCCCAGUUAAGUGACCGACGUCAACGAAUAA [theeternabot_exclusion_KL_Trp_A_21] | 606 nM
13 | GCCAGUGAUGUUGGCGAACCAACGCAUGCAGAGGAUAUUCGUUCGGGAAGAAGGCUGCAGCGUUCUCUCCCGCAGUGAUGUUGCG [Same State FMN A GF 25] | 164 nM
14 | CAAGGGCAAGUCGAUACCAGAGACACAUACCCGCAGUGAUGUUGCAGGAAACAGUUACUUCUCCCUUGGCAGCGAAUGCGACUUC [theeternabot_sameState_KL_Theo_B_45] | 348 nM
15 | AGCGAUGUUUUCUCUAAGAGUGAUGUUUUUCGAGGACCGGUACGGCCGCCACUCGAAUAAAGUGUGUGGUAGUGAGCUGUUGACA [#17 K4 Tryptophan A Exclusion] | 1150 nM
16 | AUAGGAGUGAUGUUCCUUAGUUUCUCCGAUACCAGUAUGGAAACAUACCCUUGGCAGCGGGAAACCGCAGAUUAGGAAACUAGUC [Theophylline A K4 6] | 208 nM

Row | Sequence | apparent KD of K4 kissing-loop reporter
17 | ACGUCUCGUUAAAUCGUGGUUUCGAUCGAUACCAGUAGCGAGAGUUACCCUUGGCAGCGAAAUGAGUGAUGUUCAUGAAAGAAGA [KL-XTheoA9] | 65.2 nM
18 | GUAUCGCUAGGAGGAUAUUCCGUUUUUCAUAGCAAUGGCUAUGCGGAGUGAUGUUCCGAUUUACCGGAAGAAGGCCUAGUGAUAC [FMN B 24] | 108 nM
19 | GGGCGGCAGACGGCCGCCACUCAUAGCAGCCAGUGAGUGAUGUUCGUGGCGGAGUGAUGUUCCUAGAGGACCGGGUUUGUUGUUC [Same State Tryptophan B GF 19] | 551 nM
20 | AAGCAGUCACUCUAAGCCAUCGAAGAUGGUCGAGGACCGGUACGGCCGCCACUCGGAGUGAUGUUCCGAAGACUGCAAAAUAAAA | 410 nM
21 | GUUUUAUAGGAGGAUACCAGUACAAAUAAAGUGCAUUAAUAGUAGAGUGAUGUUCUAAAGUACCCUUGGCAGCUUAGUUUAAGUU [#26 K4 Theophylline B Exclusion] | 151 nM
22 | ACCCGUAGGAUACGGAGGUGUAAAUGGGUAUAGGAUAUCUAGAAAUAGAGAAGGAUACCAGUGAUGUUGGUUCCGUAUAUCUUAA | 272 nM
23 | GGAUAGGACAGAGGAUAUCCUGAGUCUACAAAGUAGGCUCAUAAAGGAUGAAUCCUAGUGAUGUUAGGAGAAGGCUGUCCUAUCG [FmnBX 16 - #SwitchBubble #StaticStem #Palindromic] | 110 nM
24 | UCAUGAGAGACGGCCGCCACUGAAGCAGCUCUGUAAGAGCUGCAACAGUAGAGUGAUGUUCUGCGCAGGACCGGGUCGUCAUGAA [KL-SSTryp-B9] | 513 nM
25 | UAAGUGAUUCACAAGCUAGAGUUACUCGAAGGAGCGACGAAUUCGUCAGGUAGGUCGCGAGUGAUGUUCGCAUGCUCUAGCAAAU [AK1 Exc Arginine A] | 655 nM
26 | UUUAAAUAUAGUGAUGUUAUAUAACAAUGACGAGGACCGGUACGGCCGCCACUCGAGAGAGAUAAUGGUCUAUAGAAUCUAUAGC [AstrosSSTryA#4] | 726 nM
27 | GCGUCUUGGUCGGCCGCCACUGAGCCUAGUCACACUCUUGAGUGAUGUUGAAGAUGGUGGACUUGCAGGACCGGGACCACGGACG [theeternabot_sameState_KL_Trp_B_41] | 946 nM
28 | UUGGGCAACCGAGAUACCAGUCAAAUCGCUCUGGAGUGAUGUUCCGGAACAUGCGGAGAAGACCCUUGGCAGCUCAAGACGGACA [Exclusion Theophylline B GF 1] | 111 nM
29 | AGACUACCACACUGUCAAUAGACAGUGUACUAGGAUAUGCUGAUAAGCAGAAGGAGUGAUGUUCCCAGGUAGUCAAUAAAAUAAU [FmnAX 13 U28+C66] | 274 nM
30 | AACUAUUAAUGAAUUACAUUUUAUUUUUCUCGAGGACCGGUACGGCCGCCACUCGUACUAUAGUGAUGUUAUAGAUAAGUCCUAA [JR_ExcTryptoA_Sub021] | 118 nM
31 | UGUAUGUGAUUUGAUACCAGACCAGGUGGAGGAAUCUGAGUGAUGUUCAGGUAGGUUCUGGUCCCUUGGCAGCAAAUCGCAUACU [KL-SSTheoB19] | 166 nM
32 | UGACUGGACUGAAGGAGCGCGCGAGACAAAGUCUCGAACUUCUAGUGAUGUUAGAAAAUAACGCAGGUAGGUCGCAGUCUAGUCU | 165 nM

Same assay, conditions: Eterna round: R107; input ligand: arginine 13.2 mM

Row | Sequence | apparent KD of K4 kissing-loop reporter
33 | GCCGUAGAUGGAAGGAGCGUGCGUGAAGUGAUGUUUCACGAAGAGUUUUCCACCUUAUAUGCACAGGUAGGUCGCCAUCUACGGC | 99 nM
34 | UGAUACCAGACGGCCGCCACUCCCGUAAGUCAAAGACUUACGAAGAAGGUUUUUUAGUGAUGUUGGAGGACCGGGUCUGGUAUCU [FiskerMod 19 - Jieux - Exclusion - Tryptophan B] | 188 nM
35 | GUAGGCUACCGAGGAUAUAGUCCAACGGAGUGAUGUUCCGUCUUUCUUCAUCAUUAACGUUGUGAUCUAGAAGGCGGUAGCCUAC | 440 nM
36 | UGUCAUUGGUCGGCCGCCACUCCAUAAUGAGUGAUGUUCUAAAAGACGGAUCGAAAGAUCUGUCGGAGGACCGGGACCGAUGACU [FiskerMod 5 - Jieux - Same State - Tryptophan B] | 456 nM
37 | UGAUACCAGACUGAUACCAGCCAGUGAUGUUGGCUAAGCCGAAGAGGUGUCAUAGACACCGGCCCUUGGCAGCAGUCUGGUAUCU [#07 K4 Theophylline B Exclusion] | 110 nM
38 | AUUAAUUUCAGAGGAUAUCGUGAUUUUGUUUAAUUUAUUCAUUUGUGCAGUGAUGUUGCUAAUAUUCGAGAAGGCUGAUUUAUAA [whbob_Ex_FMNB__2th225] | 134 nM
39 | UGAUAGGACAGAAGGAGCGGUAGUGAUGUUACCAAAAGAAUAAGGUGUCAAAAGACACCCUACCAGGUAGGUCGCUGUCCUAUCU | 237 nM
40 | GGAUAGGACAGAGGAUAUCUCUAAAGAGGCAAGAAAACUUGUCUCAGAGAUGACUCAGUGAUGUUGAGAGAAGGCUGUCCUAUCG [FmnBX 7 - #SwitchBubble #StaticStem] | 161 nM
